The supplement of paper PMC9112550, “Optimization of the antimicrobial peptide Bac7 by deep mutational scanning” (BMC Biology, 2022)

Tested on: Escherichia coli TOP10
Assay: shrunken log2 fold change of peptide-encoding DNA abundance (4.5 h post-induction vs induction); higher = less antimicrobial activity (less host growth inhibition)
Conditions: time post-induction: 4.5 h; library: site-saturation at positions 5, 18, 19, 20
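Note: peptides expressed intracellularly from a pBAD plasmid library in pooled LB shake-flask culture, induced with 0.3% L-arabinose, DNA abundance read by NGS, three biological replicates, DESeq2 with apeglm shrinkage.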

| Sequence | shrunken log2 fold change |
| --- | --- |
| RRIRGRPPRLPRPRPRPLIDPRP | 1.36 |
| RRIRSRPPRLPRPRPRPHWVPRP | -0.166 |
| RRIRQRPPRLPRPRPRPHSTPRP | -0.149 |
| RRIRCRPPRLPRPRPRPKEIPRP | 0.0368 |
| RRIRKRPPRLPRPRPRPPFKPRP | 0.498 |
| RRIRVRPPRLPRPRPRPCIHPRP | 0.0261 |
| RRIRMRPPRLPRPRPRPVLYPRP | -0.0553 |
| RRIRRRPPRLPRPRPRPMHNPRP | 0.384 |
| RRIRGRPPRLPRPRPRPAYMPRP | -0.353 |
| RRIRGRPPRLPRPRPRPAWDPRP | 0.76 |
| RRIRMRPPRLPRPRPRPCSHPRP | -0.167 |
| RRIRDRPPRLPRPRPRPQYTPRP | -0.31 |
| RRIRVRPPRLPRPRPRPRYMPRP | -0.528 |
| RRIRLRPPRLPRPRPRPSFKPRP | -0.572 |
| RRIRARPPRLPRPRPRPYCVPRP | 0.118 |
| RRIRKRPPRLPRPRPRPTNTPRP | 1.79 |
| RRIRPRPPRLPRPRPRPIAMPRP | 0.0793 |
| RRIRMRPPRLPRPRPRPHAYPRP | 0.0623 |
| RRIRHRPPRLPRPRPRPEHGPRP | -0.00141 |
| RRIRKRPPRLPRPRPRPWYFPRP | 0.0699 |
| RRIRKRPPRLPRPRPRPAWNPRP | 1 |
| RRIRCRPPRLPRPRPRPDGWPRP | 0.378 |
| RRIRNRPPRLPRPRPRPSFMPRP | -1.21 |
| RRIRNRPPRLPRPRPRPYIIPRP | -0.156 |
| RRIRSRPPRLPRPRPRPNMYPRP | -0.635 |

| Sequence | shrunken log2 fold change |
| --- | --- |
| RRIRNRPPRLPRPRPRPGFSPRP | 0.0167 |
| RRIRCRPPRLPRPRPRPAYPPRP | -0.149 |
| RRIRLRPPRLPRPRPRPFYHPRP | -0.821 |
| RRIRRRPPRLPRPRPRPVQPPRP | 0.669 |
| RRIRMRPPRLPRPRPRPLSWPRP | 0.982 |
| RRIRSRPPRLPRPRPRPRFAPRP | 0.24 |
| RRIRDRPPRLPRPRPRPEGQPRP | 1.15 |
| RRIRYRPPRLPRPRPRPCAIPRP | -0.0633 |
| RRIRVRPPRLPRPRPRPLQIPRP | -0.0888 |
| RRIRERPPRLPRPRPRPLSDPRP | -0.0828 |
| RRIRNRPPRLPRPRPRPRGTPRP | 0.224 |
| RRIRPRPPRLPRPRPRPNQAPRP | -0.0302 |
| RRIRDRPPRLPRPRPRPNAQPRP | 0.325 |
| RRIRKRPPRLPRPRPRPHDAPRP | 0.437 |
| RRIRQRPPRLPRPRPRPILVPRP | -0.0138 |
| RRIRHRPPRLPRPRPRPYIIPRP | -0.855 |
| RRIRYRPPRLPRPRPRPRSQPRP | 0.298 |
| RRIRGRPPRLPRPRPRPWMNPRP | 0.106 |
| RRIRCRPPRLPRPRPRPFHPPRP | -0.075 |
| RRIRTRPPRLPRPRPRPSVKPRP | -0.177 |
| RRIRKRPPRLPRPRPRPTLLPRP | 0.083 |
| RRIRARPPRLPRPRPRPFAYPRP | -0.289 |
| RRIRCRPPRLPRPRPRPDPTPRP | 0.0668 |
| RRIRCRPPRLPRPRPRPLVYPRP | -0.548 |
| RRIRDRPPRLPRPRPRPAHIPRP | -0.0312 |

| Sequence | shrunken log2 fold change |
| --- | --- |
| RRIRARPPRLPRPRPRPMHTPRP | 0.261 |
| RRIRQRPPRLPRPRPRPDIDPRP | -0.078 |
| RRIRTRPPRLPRPRPRPRTVPRP | 0.00464 |
| RRIRHRPPRLPRPRPRPFQSPRP | -0.00192 |
| RRIRERPPRLPRPRPRPNDMPRP | -0.0595 |
| RRIRHRPPRLPRPRPRPRHSPRP | -0.173 |
| RRIRVRPPRLPRPRPRPCAHPRP | -0.0704 |
| RRIRTRPPRLPRPRPRPCTLPRP | -0.314 |
| RRIRSRPPRLPRPRPRPLAMPRP | 0.087 |
| RRIRWRPPRLPRPRPRPQVNPRP | 0.141 |
| RRIRYRPPRLPRPRPRPKRVPRP | 0.0354 |
| RRIRERPPRLPRPRPRPYPWPRP | -0.706 |
| RRIRERPPRLPRPRPRPRIAPRP | -0.246 |
| RRIRSRPPRLPRPRPRPVAVPRP | 0.0198 |
| RRIRIRPPRLPRPRPRPTVAPRP | 0.334 |
| RRIRWRPPRLPRPRPRPTDDPRP | -0.0402 |
| RRIRIRPPRLPRPRPRPCEDPRP | -0.424 |
| RRIRMRPPRLPRPRPRPSQWPRP | 0.0206 |
| RRIRSRPPRLPRPRPRPELGPRP | 0.547 |
| RRIRERPPRLPRPRPRPHEHPRP | -0.205 |
| RRIRPRPPRLPRPRPRPAKLPRP | 0.0398 |
| RRIRVRPPRLPRPRPRPSRQPRP | -0.0237 |
| RRIRNRPPRLPRPRPRPQRMPRP | 0.0535 |
| RRIRMRPPRLPRPRPRPKHAPRP | 3.03 |
| RRIRTRPPRLPRPRPRPDTAPRP | 0.0677 |

| Sequence | shrunken log2 fold change |
| --- | --- |
| RRIRHRPPRLPRPRPRPDAKPRP | -0.0555 |
| RRIRQRPPRLPRPRPRPMTGPRP | 0.0323 |
| RRIRTRPPRLPRPRPRPYEGPRP | -0.0536 |
| RRIRNRPPRLPRPRPRPNEFPRP | -0.692 |
| RRIRARPPRLPRPRPRPIQIPRP | -0.103 |
| RRIRYRPPRLPRPRPRPSRNPRP | -0.12 |
| RRIRPRPPRLPRPRPRPPMVPRP | 0.0188 |
| RRIRYRPPRLPRPRPRPSPVPRP | -0.612 |
| RRIRIRPPRLPRPRPRPSKFPRP | -0.245 |
| RRIRLRPPRLPRPRPRPQKLPRP | -0.17 |
| RRIRCRPPRLPRPRPRPRGRPRP | 0.46 |
| RRIRWRPPRLPRPRPRPRWRPRP | 0.552 |
| RRIRYRPPRLPRPRPRPHKNPRP | -1.06 |
| RRIRGRPPRLPRPRPRPTDLPRP | -0.109 |
| RRIRIRPPRLPRPRPRPNEIPRP | -0.191 |
| RRIRKRPPRLPRPRPRPCRKPRP | 0.0153 |
| RRIRMRPPRLPRPRPRPMCSPRP | -0.00161 |
| RRIRRRPPRLPRPRPRPNCVPRP | 0.245 |
| RRIRGRPPRLPRPRPRPCYFPRP | -0.0409 |
| RRIRVRPPRLPRPRPRPGMTPRP | 0.177 |
| RRIRARPPRLPRPRPRPEKCPRP | -0.15 |
| RRIRCRPPRLPRPRPRPYTTPRP | -0.97 |
| RRIRVRPPRLPRPRPRPFWRPRP | 0.0595 |
| RRIRIRPPRLPRPRPRPTCIPRP | -0.193 |
| RRIRDRPPRLPRPRPRPIIIPRP | -0.153 |

| Sequence | shrunken log2 fold change |
| --- | --- |
| RRIRQRPPRLPRPRPRPHYHPRP | -0.127 |
| RRIRPRPPRLPRPRPRPTQDPRP | 0.833 |
| RRIRARPPRLPRPRPRPKSMPRP | 0.0164 |
| RRIRLRPPRLPRPRPRPYHNPRP | -0.712 |
| RRIRHRPPRLPRPRPRPYPDPRP | 0.0372 |
| RRIRVRPPRLPRPRPRPAYGPRP | -0.473 |
| RRIRHRPPRLPRPRPRPFMNPRP | -0.0862 |
| RRIRERPPRLPRPRPRPQIPPRP | -0.237 |
| RRIRGRPPRLPRPRPRPYSTPRP | 0.037 |
| RRIRCRPPRLPRPRPRPPSMPRP | 0.0264 |
| RRIRIRPPRLPRPRPRPQNWPRP | -0.517 |
| RRIRIRPPRLPRPRPRPIISPRP | -0.101 |
| RRIRQRPPRLPRPRPRPWWPPRP | -0.119 |
| RRIRDRPPRLPRPRPRPRQIPRP | -0.233 |
| RRIRIRPPRLPRPRPRPNDDPRP | -0.0364 |
| RRIRQRPPRLPRPRPRPYTVPRP | -0.104 |
| RRIRDRPPRLPRPRPRPIKQPRP | -0.00204 |
| RRIRMRPPRLPRPRPRPTGTPRP | 0.407 |
| RRIRRRPPRLPRPRPRPYNEPRP | -0.103 |
| RRIRQRPPRLPRPRPRPSTWPRP | -0.116 |
| RRIRMRPPRLPRPRPRPWRVPRP | -0.158 |
| RRIRSRPPRLPRPRPRPLVSPRP | 0.208 |
| RRIRYRPPRLPRPRPRPQLWPRP | 0.0782 |
| RRIRPRPPRLPRPRPRPPLIPRP | -0.338 |
| RRIRSRPPRLPRPRPRPFDEPRP | 0.0719 |

| Sequence | shrunken log2 fold change |
| --- | --- |
| RRIRQRPPRLPRPRPRPGKHPRP | 0.0941 |
| RRIRMRPPRLPRPRPRPLTMPRP | 0.24 |
| RRIRYRPPRLPRPRPRPLHIPRP | -0.271 |
| RRIRIRPPRLPRPRPRPMAPPRP | -0.0415 |
| RRIRWRPPRLPRPRPRPWEPPRP | -0.0178 |
| RRIRDRPPRLPRPRPRPCAPPRP | -0.0226 |
| RRIRIRPPRLPRPRPRPFIYPRP | -0.899 |
| RRIRQRPPRLPRPRPRPCSSPRP | -0.0115 |
| RRIRDRPPRLPRPRPRPMHYPRP | 0.0552 |
| RRIRKRPPRLPRPRPRPFEHPRP | -0.0326 |
| RRIRHRPPRLPRPRPRPWMAPRP | -0.347 |
| RRIRARPPRLPRPRPRPYGGPRP | -0.221 |
| RRIRTRPPRLPRPRPRPVNGPRP | 0.0311 |
| RRIRGRPPRLPRPRPRPSGMPRP | 0.48 |
| RRIRLRPPRLPRPRPRPIWTPRP | 0.0256 |
| RRIRWRPPRLPRPRPRPRWFPRP | 0.999 |
| RRIRDRPPRLPRPRPRPRRMPRP | -0.152 |
| RRIRTRPPRLPRPRPRPSVNPRP | -1.91 |
| RRIRHRPPRLPRPRPRPWGEPRP | -0.0132 |
| RRIRIRPPRLPRPRPRPMSNPRP | 0.115 |
| RRIRPRPPRLPRPRPRPQGIPRP | 0.102 |
| RRIRARPPRLPRPRPRPYTAPRP | -0.0946 |
| RRIRERPPRLPRPRPRPTLAPRP | 0.269 |
| RRIRKRPPRLPRPRPRPVFMPRP | 0.138 |
| RRIRQRPPRLPRPRPRPWSSPRP | -0.0435 |
